Source: the supplement of paper PMC9170038

System: K4 kissing-loop RNA reporter
Test: apparent KD of K4 kissing-loop reporter; higher = weaker reporter binding
Settings: Eterna round: R107
Protocol: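 RNA-MaP round R107: designed RNA switches with theophylline, tryptophan, arginine or FMN aptamers are transcribed on-chip within common flanks. They are titrated with a labelled K4 kissing-loop RNA reporter in RNA-MaP buffer (100 mM Tris pH 7.5, 80 mM KCl, 4 mM MgCl2), without ligand or with the indicated ligand. Median apparent KD per design.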

[1] = input ligand: theophylline 20 uM
[2] = input ligand: tryptophan 2.4 mM
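Note: bound reporter read as fluorescence of individual clusters on recovered sequencing chips by microscopy, with normalized cluster intensities fitted with a binding model.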

Sequence	apparent KD of K4 kissing-loop reporter (input ligand: FMN 200 uM)	apparent KD of K4 kissing-loop reporter (input ligand: arginine 13.2 mM)	apparent KD of K4 kissing-loop reporter (input ligand: none)	apparent KD of K4 kissing-loop reporter [1]	apparent KD of K4 kissing-loop reporter [2]
CGCAUACCUGCGCUAGUAGUGAUGUUACAGCGAGGACCGGUACGGCCGCCACUCGUGACGGUCGCAAAACGCGUUGCAGAACACU [theeternabot_exclusion_KL_Trp_A_32]	342 nM	183 nM	247 nM	253 nM	322 nM
CGCCGCAACUGAAGGAGCGCGCCAGUGAUGUUGGACGGCUUUGUCAAGGAAACUGCACCGGUGCAGGUAGGUCGCAGUUCGCGGU [Dilea]	278 nM	291 nM	297 nM	253 nM	252 nM
CGCCGGAAGGCGGUCGCUCCCACUCCGGAAGGAGCGCCCGGAAGGGCAGGUAGGUCGCCGGAGUGAUGUUCCGGUGGAGGGACCG [#2 Exclusion - Arginine A Attempt #10 (Inspired by Omei)]	230 nM	117 nM	113 nM	111 nM	109 nM
CGCGAGUCCUUUCAGUGAGUGAUGUUUACGCGAGGACCGGUACGGCCGCCACUCGAUGGUAUACCAAGACAUCAGCAGAUUGUCU [theeternabot_exclusion_KL_Trp_A_18]	304 nM	304 nM	321 nM	387 nM	342 nM
CGCGCGCGUUUGAGAGGGUGCGCGCGAAGUGAGGAUAUUUAGGGAGAAAGAAGGCACUAUAAAAUAUAGUGAUGUUAUAUAAGGG [SSFMNA.G]	431 nM	114 nM	382 nM	187 nM	344 nM
CGCGCGGGUUGAGAGGUUCGCGCGAAUGAUACCAGUAUAUAAGAAUACCCUUGGCAGCAUAAGAAAGAUAUAGUGAUGUUGUAUA [SSTheophA.G]	408 nM	211 nM	262 nM	355 nM	262 nM
CGCGCGUGAGGACUUGCCCUUCAUGGAGAUACCAGCCAGUAUGCGGGCCCUUGGCAGCUCGAGUGAUGUUCGAGUUUAAGGCAAA [Riesla]	130 nM	113 nM	115 nM	114 nM	108 nM
CGCGGCCCGCCGGAUACCAGUGACCCGCGGGAAACCGCGGGCCCAGAGUGAUGUUCGGGACACCCUUGGCAGCCGCCUGGGCGUG [#2 Same State - Theophylline B Attempt #1 (HarryS)]	567 nM	325 nM	620 nM	1000 nM	424 nM
CGGAUGUAGUGAUGUUAUAUUAGAUGUAGACGAGGACCGGUACGGCCGCCACUCGUGACGGCUGCUAGCGCGUUGCGAGGUUUGC [ExTryptoA.Cn]	716 nM	488 nM	758 nM	518 nM	543 nM
CGUGUAAUGUGGAGAUUUGAAAAGGCGCAUCGAGGACCGGUACGGCCGCCACUCGCUACGAGCUAGUGAUGUUGGCUCGUUCGGA [theeternabot_sameState_KL_Trp_A_23]	238 nM	209 nM	210 nM	252 nM	194 nM
CGUUUAUAGCAGGAUACCAGUACCCAUUAAGUACGUUAAUAGUAGAGUGAUGUUCUAAAGUACCCUUGGCAGCUUCCCGUGACCC [ExTheophylB.X]	103 nM	164 nM	124 nM	176 nM	94.1 nM
CGUUUAUAGCAGGAUACCAGUACCCAUUAUGUACGUUAAUAGUAGAGUGAUGUUCUAAAGUACCCUUGGCAGCUUCCCGUGACCC [ExTheophylB.Y]	119 nM	183 nM	140 nM	176 nM	94.7 nM
CUAAGGGAAGCAGGAUAUCGGUAUUAGUGUGUUAAAUAAACACUCGGGUAGUGAUGUUGCCCGUGGCGAGAAGGGCUACCAUUGG [Laace]	33.6 nM	44.8 nM	48.7 nM	41.4 nM	47.3 nM
CUAUAAGUGCCGAGUGAUGUUCGGCCAAUACGAGGACCGGUACGGCCGCCACUCGGUCAGUCGGUGCCCACCGGGCAUGGCUGAC [Ortima]	186 nM	237 nM	205 nM	213 nM	113 nM
CUAUAGACCCUUCGGAUAGUGAUGUUGUCACGAGGACCGGUACGGCCGCCACUCGCUGCCACCAUACCGCUUCACGGAACGAGCA [theeternabot_exclusion_KL_Trp_A_7]	483 nM	429 nM	503 nM	599 nM	169 nM
CUAUGAGUGAUGUUCGUAGGUUGGGCUUGGCAGGAUAUGGGAUCUUCCAGAAGGGCCGAUUCCGGCGAGUGAUGUUCGUUGGUCU [Exclusion FMN A GF30]	41.7 nM	42.1 nM	50.1 nM	43.2 nM	43.9 nM
CUAUGGAAACAUAGUAGUCGGGAAACCGAUACCAGUAUGGAAACAUACCCUUGGCAGCGGAAUGAUUAAACGGAGUGAUGUUCCG [Theophylline A K4 18]	279 nM	276 nM	292 nM	223 nM	250 nM
CUAUUUCGCGUGGAUACCAGCGGUCGUAAAAUGUCAGUGAUGUUGAAGAGGAAAAGAGCUCGCCCUUGGCAGCCAUUCCGCACUA [theeternabot_sameState_KL_Theo_B_34]	591 nM	363 nM	568 nM	446 nM	399 nM
CUCGUGGGUUUGAGAGGGCUUGUGGGAAGUGAGGAUAUUUAGGGAGGGAGAAGGUACUAUAGAAUAUAGUGAUGUUAUAUAUGGG [SSFMNA.U]	264 nM	138 nM	185 nM	111 nM	147 nM
CUCUAGGCGCUCGCGUGAGUGAUGUUUACGCGAGGACCGGUACGGCCGCCACUCGCAGACUGGGUGUAAGCGGAGCUGUAUGCCC [theeternabot_exclusion_KL_Trp_A_12]	277 nM	158 nM	212 nM	174 nM	223 nM
CUUGGAAGGACGGCCGCCACUCGACAGUGAUGUUGUCCGAGUGGGUAGCGCAGUGAUGUUGUGUCGAGGACCGGGUCCUAGGAAU [Exclusion Tryptophan B GF 27]	185 nM	149 nM	170 nM	155 nM	137 nM
